Test results from US20040028607.

T1: 9-amino acid synthetic alpha-tubulin peptide MPSD(AcK)TIGG, acetylated on lysine-40
T1 chain: MPSDXTIGG

B1: recombinant yeast Hst2p (protein)
chain: MSVSTASTEMSVRKIAAHMKSNPNAKVIFMVGAGISTSCGIPDFRSPGTGLYHNLARLKLPYPEAVFDVDFFQSDPLPFYTLAKELYPGNFRPSKFHYLLKLFQDKDVLKRVYTQNIDTLERQAGVKDDLIIEAHGSFAHCHCIGCGKVYPPQVFKSKLAEHPIKDFVKCDVCGELVKPAIVFFGEDLPDSFSETWLNDSEWLREKITTSGKHPQQPLVIVVGTSLAVYPFASLPEEIPRKVKRVLCNLETVGDFKANKRPTDLIVHQYSDEFAEQLVEELGWQEDFEKILTAQGGMGDNSKEQLLEIVHDLENLSLDQSEHESADKKDKKLQRLNGHDSDEDGASNSSSSQKAAKE
B2: recombinant human SIRT2 (6xHis-tagged, with factor Xa cleavage site, purified from E. coli) (protein)
chain: MAEPDPSHPLETQAGKVQEAQDSDSDSEGGAAGGEADMDFLRNLFSQTLSLGSQKERLLDELTLEGVARYMQSERCRRVICLVGAGISTSAGIPDFRSPSTGLYDNLEKYHLPYPEAIFEISYFKKHPEPFFALAKELYPGQFKPTICHYFMRLLKDKGLLLRCYTQNIDTLERIAGLEQEDLVEAHGTFYTSHCVSASCRHEYPLSWMKEKIFSEVTPKCEDCQSLVKPDIVFFGESLPARFFSCMQSDFLKVDLLLVMGTSLQVQPFASLISKAPLSTPRLLINKEKAGQSDPFLGMIMGLGGGMDFDSKKAYRDVAWLGECDQGCLALAELLGWKKELEDLVRREHASIDAQSGAGVPNPSTSASPKKSPPPAKDEARTTEREKPQ

Tests used:
[1] = molecular target: T1, 9-amino acid synthetic alpha-tubulin …
[2] = molecular target: PCAF-acetylated calf thymus core histones
[3] = molecular target: monoacetylated histone H3 peptide …(AcK)APRKQL, acetylated on lysine-14

Protein | V/K, deacetylation of tubulin peptide, HPLC [1] [M⁻¹ s⁻¹] | kcat (printed 'kea'), deacetylation of tubulin peptide, HPLC [1] [s⁻¹] | apparent V/K for deacetylation of core histones, fold over SIRT2 [2] | fold preference for H3 peptide relative to SIRT2 (V/K and Km) [3] | kcat (printed 'km values'), deacetylation of acetylated H3 peptide [3] | fold preference for tubulin peptide relative to Hst2p (kcat and V/K) [1]
B1 | 14.9 | 0.00254 ± 0.0003 | Hst2p exhibited a 7-fold higher V/K value than SIRT2 | ˜200-fold stronger preference for H3 peptide relative to SIRT2 | The km values (˜0.2 s^-1) were similar between the two enzymes | 
B2 | 894 ± 100 | 0.144 ± 0.005 |  |  | The km values (˜0.2 s^-1) were similar between the two enzymes | This difference was 60-fold
